Patent US20170209564A1

Target: s127H1-t2 (Influenza A virus H1N1 A/Brisbane/59/2007)
Details: remark: other sources report otherwise

B1: monoclonal antibody CR6261 (antibody, V domains shown)
VH: EVQLVESGAEVKKPGSSVKVSCKASGGPFRSYAISWVRQAPGQGPEWMGGIIPIFGTTKYAPKFQGRVTITADDFAGTVYMELSSLRSEDTAMYYCAKHMGYQVRETMDVWGKGTTVTVSS
VL: QSVLTQPPSVSAAPGQKVTISCSGSSSNIGNDYVSWYQQLPGTAPKLLIYDNNKRPSGIPDRFSGSKSGTSATLGITGLQTGDEANYYCATWDRRPTAYVVFGGGTKLTVLG
**Q.** How did the Kd turn out when B1 was run?
**A.** Its Kd is 3.5 nM.
